According to article PMC2765501:

Molecular target: C22-pT peptide (HIV-1 gp41 MPER residues 662-683 with a C-terminal GCN4-pT isoleucine-zipper motif) (HIV-1)
Test: AUC

C22-pT peptide (HIV-1 gp41 MPER residues 662-683 with a C-terminal GCN4-pT isoleucine-zipper motif)
stoichiometry N: 3
